Measurements as given in paper PMC4911930.
Values belong to the substance of their own block, whether it stands above or below them.

Assays:
[1] = biological target: Spt16 (human (endogenous in HeLa and U2OS)) (UniProt Q9Y5B9)
Spt16 952–955A (human) = Spt16 952–955A (human) (UniProt Q9Y5B9); assay: pull-down; GST-tagged Spt16 fragments and alanine mutants as bait, CENP-T^HFD/-W as prey, GST alone as control; Coomassie gel; also with 1 M NaCl for 926–1047 (Supplemental Fig. S5a)
Spt16 956–960A (human) = Spt16 956–960A (human) (UniProt Q9Y5B9); assay: as above
CENP-T^HFD/-W complex = CENP-T^HFD/-W complex (UniProt Q5EE01); assay: ITC; Spt16-CTD (amino acids 926–965; 2.2 mM) injected into 200 µL of 150 µM CENP-T/-W, human H2A/H2B or CENP S/X; 20°C; 20 mM Tris pH 7.5, 0.2 M NaCl; single-site model for CENP-T/-W, two-site model for H2A/H2B

CENP-T, sequence (Q96BT3 whole entry): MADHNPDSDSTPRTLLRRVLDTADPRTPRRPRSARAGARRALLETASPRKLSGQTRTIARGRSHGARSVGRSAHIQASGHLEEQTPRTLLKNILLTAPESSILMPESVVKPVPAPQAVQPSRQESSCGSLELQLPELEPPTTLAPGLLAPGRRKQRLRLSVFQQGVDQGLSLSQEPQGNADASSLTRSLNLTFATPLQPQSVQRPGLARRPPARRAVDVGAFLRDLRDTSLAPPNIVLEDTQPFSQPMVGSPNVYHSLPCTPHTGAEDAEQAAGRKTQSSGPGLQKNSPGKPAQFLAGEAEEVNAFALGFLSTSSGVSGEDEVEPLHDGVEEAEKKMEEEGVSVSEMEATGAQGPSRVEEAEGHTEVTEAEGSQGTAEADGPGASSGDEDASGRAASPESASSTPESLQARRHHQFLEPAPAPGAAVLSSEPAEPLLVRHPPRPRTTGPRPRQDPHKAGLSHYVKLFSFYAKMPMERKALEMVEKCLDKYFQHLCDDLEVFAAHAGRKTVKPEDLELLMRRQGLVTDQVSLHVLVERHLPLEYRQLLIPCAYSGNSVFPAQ

accumulation of endogenous CENP-T at the LacO locus in cells transfected with eGFP-LacI-Spt16 (immunofluorescence after 24 h) [1]: 10 % of cells
Substance: CENP-T (from UniProt Q96BT3 1-561) (natural protein)

percent reduction of binding against unmutated Spt16 926–965 (Spt16 952–955A (human)): < 40% | percent reduction of binding against unmutated Spt16 926–965 (Spt16 956–960A (human)): < 60%
Substance: CENP-T^HFD/-W complex (from UniProt Q5EE01 1-88)

Kd (CENP-T^HFD/-W complex): 6.3 µM
Substance: Spt16-CTD (Spt16 amino acids 926–965) (from UniProt Q9Y5B9 926-965) (domain or fragment)
